# Test results from patent US20070270486.
# T1: Myocilin tagged at its C-terminus with S-peptide, Q99972
# T1 chain: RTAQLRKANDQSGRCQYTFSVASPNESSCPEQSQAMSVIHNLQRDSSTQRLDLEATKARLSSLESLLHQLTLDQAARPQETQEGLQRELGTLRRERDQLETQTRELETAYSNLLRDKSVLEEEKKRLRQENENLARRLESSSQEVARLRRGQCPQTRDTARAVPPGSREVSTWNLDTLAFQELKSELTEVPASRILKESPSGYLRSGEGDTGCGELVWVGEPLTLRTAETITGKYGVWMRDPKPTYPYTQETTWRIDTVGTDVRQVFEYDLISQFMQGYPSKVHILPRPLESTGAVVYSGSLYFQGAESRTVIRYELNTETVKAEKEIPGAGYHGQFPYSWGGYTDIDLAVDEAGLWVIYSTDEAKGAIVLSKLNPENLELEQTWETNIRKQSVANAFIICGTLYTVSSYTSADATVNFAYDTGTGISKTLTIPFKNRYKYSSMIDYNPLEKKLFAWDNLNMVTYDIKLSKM
# B1: S-protein (protein)
# chain: SSSNYCNQMMKSRNLTKDRCKPVNTFVHESLADVQAVCSQKNVACKNGQTNCYQSYSTMSITDCRETGSSKYPNCAYKTTQANKHIIVACEGNPYVPVHFDASV
# Target: T1, Myocilin tagged at its C-terminus with …
protein,measurement,value
B1,RNAase analysis of culture medium (enzymatic recombination assay),the assay can detect secreted myocilin in less than 1 µl of media
